Data on 1 protein can be found in PMC6126924, “Arabidopsis formin 2 regulates cell-to-cell trafficking by capping and stabilizing actin filaments at plasmodesmata” (eLife, 2018).

This data set deals with the molecule itself. Briefly: SEC; Superdex 200 Increase 10/300; 100 mM Tris-HCl pH 8.5, 150 mM NaCl, 1 mM DTT, 5% glycerol; 0.4 mL/min; His-tag fusion proteins. On the technique in general: In gel filtration, larger molecules generally elute earlier.

The term stoichiometry N denotes the number of molecules, sites or subunits per partner or assembly.

B1: 6His-AtFH2-FH2 (domain or fragment, Arabidopsis thaliana, UniProt O22824 438-864, looked up)
chain: EKKVETMKPKLKTLHWDKVRASSSRVMVWDQIKSNSFQVNEEMIETLFKVNDPTSRTRDGVVQSVSQENRFLDPRKSHNIAILLRALNVTADEVCEALIEGNSDTLGPELLECLLKMAPTKEEEDKLKELKDDDDGSPSKIGPAEKFLKALLNIPFAFKRIDAMLYIVKFESEIEYLNRSFDTLEAATGELKNTRMFLKLLEAVLKTGNRMNIGTNRGDAHAFKLDTLLKLVDIKGADGKTTLLHFVVQEIIKFEGARVPFTPSQSHIGDNMAEQSAFQDDLELKKLGLQVVSGLSSQLINVKKAAAMDSNSLINETAEIARGIAKVKEVITELKQETGVERFLESMNSFLNKGEKEITELQSHGDNVMKMVKEVTEYFHGNSETHPFRIFAVVRDFLTILDQVCKEVGRVNERTVYGSMPLHSPSN
notes: Arabidopsis thaliana Formin 2 (AtFH2, At2g43800), FH2 domain; cloned in pET23a; Mainly a dimer by size exclusion chromatography (about 100 kDa); source: E. coli Tuner (DE3) pLysS, purified (Ni-NTA)
On to B1, for which the “stoichiometry N” value stood at 2.
